In the DeepSol protein solubility set:

Assay: soluble on expression in E. coli; label from the status in PepcDB or PDB records
With “MGSDKIHHHHHHMPRLLLVTNDFPPTVGGIQSYLRDFVALLPPEDVVVFASTQDPVAAREFDKSVPYKVVRYSSKLMLPTPQVKKLMVDLIKSEGVSTVWFGAAAPLAVMAPAARAAGAIQIISTTHGHEVGWSMVPGARSVLRFIGQHSDVVTYISDYTLRRFRRAFGEHPKFVHLPSGVDVERFYPVDEKQKFELRDQLGWAEKDKVIVCTSRLVPRKGQDTLIKAFPEIVQRCSEARLVIVGEGRIEGKLRRLAARDQKASSRISFEGRVSEEKMGMMLRGADVFAMPCRTRGGGLDVEGLGIVFLEAQACGVPVIAGDSGGAPETVTPASGVVVNGRDSSSVAHVIVDLVQQPAALMSMGHAGRQHVVDHWTWEIMGARLKSLIL” the “soluble on expression in E. coli” value was “not soluble”.
In the case of “MKFPGQRKSKHYFPVHTRDPLVNQINQTPKLERTHLIGVGQTIVDIEAKVDDDFLNRHQLSKGHSLVLEESKAEALYKELFERNLISHEYPGDTIGNTLHNYSVLADSKSILLGVMSEDIKIGSYAYRYLCNTTSRMDLDYLQPVQGPIGRCYTLISEDGERTFAINEGDMNQLCPTHVPEHIFEKASALVISSYLVRGKEGDPMMDAVRKAIDCAKSHNVPVVLTLGTKYVIEGKAEWWQTFLKENVTVVAMNEEEAEALTGEKDPLLAADKALEWVDLVLCTAGPIGLYMAGFTEESIKRETSKPLLPGNIPEFNRFEYSRPMVKALCKKPIKVSSHIAPYMGGPVEIKNTNGAGDAALSALLHDMAANYYHKENVPNSSKHDAEYLTYSSFSQICKYSNRASYEVLTQHSPRLSKSMPEREDCLEEAYWER”, the “soluble on expression in E. coli” value is reported as “not soluble”.
For “MAVELRYDEEAVFLRRVNRFVVEVKSSRGVVRCHLMDTGRIDHLASPGRRGVLIAWLNRLGGKTVCRAQAFKTAGGVVAVVDSRVPNRLFAEAAPMVVGGDASIEAEREVFGSRLDFLISTGRGLWAVEVKGVNLSLDGVGLFPNAPSARAVKHLEVLARLAREGVKPLMAFVALRPDIRVFAPNYRVDRRFASLACTLLRRGLVGMVGIRVSIDLEPGVVRIRPVATAPVQCPPLQPGR”, the “soluble on expression in E. coli” value was “soluble”.
In the case of “MGSDKIHHHHHHMDKFLYVAMSGAKQNMSALAVRANNLANANTDGFKSDLTQARSMQAFGEGLPSRVFAMTEIATSDFKAGALKTTGRDLDIAVKGDGWIAVQAPDGSEAYTRSGGLKFDNTGLLLNSRNNPVMGNSGPIVLPLPIDKLQISPDGIISIRPQGATAEVIEEVARIKLVNPDNSQMMRGEDGLFRLTSGDVAAKDPSVQVESGAIEASNVNPVEEMVALISIQRQYEMQVKMMKTAEETDQASSSLMRIG”, the “soluble on expression in E. coli” value is reported as “not soluble”.
In the case of “MGSDKIHHHHHHMDIRQLTYFIAVAEAKNYSRAAKSLFVTQPTLSQSIKKLEAELNTILFLQNGRQLALTEAGEILYEKGQLLMTNVNQMVTEIQQLNQEKKEGIRVGLTSLFAIQFMKQISTFMATHSNVEVSLIQDGSRKLQELLAKGKIDIGLLSFPSTRNDITIEPLQTSTKGYKVSIVMPKSHPLATLPEIELNDLRDYKVASLNEHYMLGEMLPRKCRALGFDPHIVFKHNDWEVLIHSLQDLNAVTILPSEFESISQVQDLCWVPLKDKNNFYPIGIAYRNDTSFSPMIEEFLSLLKTN”, the “soluble on expression in E. coli” value is reported as “not soluble”.
With “MTGNKIHNPLDRNHSELRDKKVSLNDGDPFTIALFGVDSDADRKKKGGGERSDSIMILSINPKTKKTEIVSIPRDTRAEIVGRGTTEKIAHAYAYGGPNMAVKSLEKLMNVPIDHYATIDMDGLHNMIDSIGGVDVVSNDTFTVDGVRFTKGQQTHVNGDQALKFIRSRKEEGAGGDFGRQQRQQIVLEAMANKIASPSSITHFNSLMNEIQNNVKTDLTLGDLNTIRSNYKDANDTINKHQLSGQGGIQSDGLYYFIPSEQSKAESTKLLKDNLELEHHHHHH” the “soluble on expression in E. coli” value was “soluble”.
In the case of “MSLDSRPKLPQTLSRGWGDQLIWTQTYEEALYKSKTSNKPLMIIHHLDECPHSQALKKVFAENKEIQKLAEQFVLLNLVYETTDKHLSPDGQYVPRIMFVDPSLTVRADITGRYSNRLYAYEPADTALLLDNMKKALKLLKTELEGHHHHHH”, the “soluble on expression in E. coli” value is reported as “soluble”.
With “MGHHHHHHSHMSENELSAEDTAFLEKAFELAQEALDEDEVPVGCVFVVNGTEIGRGRNRVNETGDPTRHAEMVAVTEMWKEHGTGCEDLLKKSTLYVSLEPCIMCSSAMYQLGIRKMVYGAENPRFGGVRSVGSAEKYRMEDNVQIVAGIWSERSVAMLKTFYEKLNPFAPPEKRKTKKPKLDEIK” the “soluble on expression in E. coli” value was “not soluble”.
With “MGSDKIHHHHHHMSFDPFGDFETTGYLRNSLGLKDPAEVKENEHFSFEMGLDEALSYLERTKNLNYQALLQVHRLLFEKFYPWAGRDRLELVPHLSVWKGPKGAPRRTFFESPAMIERAVDYALSLASKKQGFMQKPGEVMGLLCFAHPFLDGNGRSILLFYMELSYRAGFAIDWASTRKDDYLQALDDEIHNPGKGHLDRYLVPFVVPIHSRDQWPEIIGQINGLDGMDGENITYENLDDPEVQKVYAAYHAEHPYPAKDGTPDSEP” the “soluble on expression in E. coli” value was “not soluble”.
In the case of “MGSDKIHHHHHHMFVQHDERSRPCCCSFISFKYLKTTTPQEEEMPKKPKPNNFHDELNFARFGVISMHSRIDREVTSWKSEFTINGRTFRIEAITPEGRPHGIDTDTLVAVETLFVASSCPEDNWVHTTAYEMRELMGLGNNGDSYHRLRQSLRRLYLTSVIVGRKTSVANASGRVTWDNVGVRFLEGIRYRDAEDANALSMLDGEATLSIRLGEQLAASIRNGVSQVLDGQLLHQLEQPPARALYRTLQAHRRQDDGTLLDQLRVPLAEWRLATGLTTERTDLVRRALEAAHDELLANRYLEAVSIEGRGKKAYASYTFAERGAADPALVVLLRHAGVTVSRATALAAQHPERVEEACGFWKAAGPARAARYVIPAAWLRTSSRIQANISFRKSSSNLAVNVSSGCRS”, the “soluble on expression in E. coli” value is reported as “not soluble”.
With “MGLEKTVKEKLSFEGVGIHTGEYSKLIIHPEKEGTGIRFFKNGVYIPARHEFVVHTNHSTDLGFKGQRIKTVEHILSVLHLLEITNVTIEVIGNEIPILDGSGWEFYEAIRKNILNQNREIDYFVVEEPIIVEDEGRLIKAEPSDTLEVTYEGEFKNFLGRQKFTFVEGNEEEIVLARTFCFDWEIEHIKKVGLGKGGSLKNTLVLGKDKVYNPEGLRYENEPVRHKVFDLIGDLYLLGSPVKGKFYSFRGGHSLNVKLVKELAKKQKLTRDLPHLPSVQALLEHHHHHH” the “soluble on expression in E. coli” value was “soluble”.
In the case of “MNIRNARPEDLMNMQHCNLLCLPENYQMKYYFYHGLSWPQLSYIAEDENGKIVGYVLAKMEEDPDDVPHGHITSLAVKRSHRRLGLAQKLMDQASRAMIENFNAKYVSLHVRKSNRAALHLYSNTLNFQISEVEPKYYADGEDAYAMKRDLTQMADEPASGPGSSCLLSGDLGPVSFHPLPSGLLAAAEAAPGAEGKGQAHGSGGLGEQSGEQRQRAFELRRGLS”, the “soluble on expression in E. coli” value is reported as “soluble”.
With “MGSDKIHHHHHHMEPKYTSFDKSAKTCIRQQVITEDLSWAHYQNAGERLYYQNDTQHTLSMYLDGGYETHRTDIKADYGAPSKFCLMPQGCQSHWQLGQPQQFMHLYFSDEHLKKLAVRVFDKDPRQVRLPELTFVDNPRLEALFRHQVAGLNWQTSDNHLMMEQVTDTVLVTLLQSSGFNLSVGPIKGGLAPKVAKAIKEFIYCHSHRQIYLSELAEIAQLSEYHFCRMFKCQFAMTPQEYLLQVRIEKVKQSLSHSTQSLTDIALNNGFANQSHMGRYFKKLSGMSPGEYQKHHQGR” the “soluble on expression in E. coli” value was “not soluble”.
For “MGSSHHHHHHSSGRENLYFQGHMFFTDWEGPWILTDFALELCMAVFNNARFFSNLSEYDDYLAYEVRREGYEAGYTLKLLTPFLAAAGVKNRDVERIAELSAKFVPDAEKAMATLQERWTPVVISTSYTQYLRRTASMIGVRGELHGTEVDFDSIAVPEGLREELLSIIDVIASLSGEELFRKLDELFSRSEVRKIVESVKAVGAGEKAKIMRGYCESKGIDFPVVVGDSISDYKMFEAARGLGGVAIAFNGNEYALKHADVVIISPTAMSEAKVIELFMERKERAFEVLSAVSIPETEIYIMENSDFGEVLEKSKRMRVRLRGLAGELGGS”, the “soluble on expression in E. coli” value was “soluble”.
In the case of “MRQALPLVTRQGDRIAIVSGLRTPFARQATAFHGIPAVDLGKMVVGELLARSEIPADAIEQLVFGQVVQMPEAPNIAREIVLGTGMNVHTDAYSVSRACATSFQAVANVAESLMAGTIRAGIAGGADSSSVLPIGVSKALARVLVDVNKARTTRQRLTLFSRLRLRDLLPVPPAVAEYSTGLRMGDTAEQMAKTYGITREQQDALAHRSHQRAAQAWAEGKLAEEVMTTYVPPYKNPFAEDNNIRGASTLADYAKLRPAFDRKHGSVTAANSTPLTDGAAAVILMTESRAKELGLRPLGYLRTYAFTAIDVWQDMLLGPAWSTPLALERAGLTMADLTLFDMHEAFAAQTLANLQLLGSERFAREVLGCAQATGEVDDAKFNVLGGSIAYGHPFAATGARMITQTLHELRRRGGGFGLVTACAAGGLGAAMVLEAE”, the “soluble on expression in E. coli” value is reported as “not soluble”.
For “MSLVKAVLFDIDGTLLSEKPLIMFILPQVYDELANKLNISRMEARRIFLSEIEKRKGKYEWHDWNFFFRLFSLPFKYEDFIMKYPTKIEVFPGVVEVLKYLKERGYRLGIVTSGPRYQVLKLKVSGIYRYFDVVVTRDDVGSIKPEPRIFLAALEKLKISPKDAVMVGDSLEQDILGAKGVGMKSVWINVGGENGYNLPDFEISSILQLPEVIEDESDIEGHHHHHH”, the “soluble on expression in E. coli” value was “soluble”.
For “MIEKDVVQILKAVSEFYPGRFQPDDLKGTVKAWHRVLAEYELEEIMNNLTDYAKVNKFPPTVSDLLKAQSEQRDRFIPSYEETQRILKEQAEAEEAARNDPDLQAAQEENMRKIREMLGINRGGAR”, the “soluble on expression in E. coli” value was “soluble”.
In the case of “MAFICPEEIEAYAEEHSSELHPILEELVEFTYKNTDLPQMMVGRAEGNFLKMLVEISGAKRVLEIGTFTGFSALMMAQGLPEDGKLTTIEVNPEYAQMAKSFIERAPWGKKIEVIVGDARKVLEEFKKESFDFIFIDADKSSYPYYYEKCLELLKKGRLMAIDNALWEGKVLEPDDNRSKAIARMNEMIKEDPRVEKVLLTVRDGIFLVRKI”, the “soluble on expression in E. coli” value is reported as “soluble”.
In the case of “MAHHHHHHMGTLEAQTQGPGSMLEKKTFKSSHTNAFHDFQARVYVADTDFSGVVYHARYLEFFERGRSEFLRDTGFNNTLLASGVEGEKLFFVVRHMEINFSRPAQIDNLLTIKTRISRLQGARFFMEQYILHGESMLVTAKVEIALINEEGKPRRLPKELFSTIVV”, the “soluble on expression in E. coli” value is reported as “soluble”.
In the case of “MVRKVNIIKGNEGQGKRIKFVQLIFVDINGMPKGMEVPITRLEEAIEEGIAFDGSSVPGFQGIEDSDLVFKADPSTYVEVPWDNVARVYGYIYKDGKPYEADPRGVLRRTLERLEKLGIKVYIGPEPEFYLFKKNGSWELEIPDVGGYFDILTLDKAKDIKREIAEYMPYFGLTPEVLHHEVGKAQHEIDFRHDEALKTADNIVSFKYIVKAVAEMHGLYATFMPKPIYGMPGNGMHLHISLWKDGENIFKGEEGLSETALYFIGGLLKHAKALAAVTNPTVNSYKRLVPGYEAPVYISWGYKNRSALIRVPAFWGNGARIEYRCPDPSANSYLAFAAILMAGLDGIKHKIEPFAYVEENVYEMDEKRREEIGIDMLPENLGEALDELERDKVVKEALGGAYRNFVGYKRKEWEEYLDYLEAKNLPKDTKNVTEWELERYFFI”, the “soluble on expression in E. coli” value is reported as “soluble”.
For “GSEEHCAPNKEPVKYGELVVLGYNGALPNGDRGRRKSRFALYKRPKANGVKPSTVHVISTPQASKAISCKGQHSISYTLSRNQTVVVEYTHDKDTDMFQVGRSTESPIDFVVTDTISGSQNTDEAQITQSTISRFACRIVCDRNEPYTARIFAAGFDSSKNIFLGEKAAKWKNPDGHMDGLTTNGVLVMHPRGGFTEESQPGVWREISVCGDVYTLRETRSAQQRGKLVESETNVLQDGSLIDLCGATLLWRTADGLFHTPTQKHIEALRQEINAARPQCPVGLN”, the “soluble on expression in E. coli” value was “soluble”.
In the case of “MERKKAVVLLSGGLDSSTVLAYAISLGYEVHAISFDYGQRHSREMNSSEELAKYYGVDRKIVHVDLRSIGKSALTDDIEVPSRDLESIPEEIPVTYVPARNTIFLSIAAAYAESIGSTDIFIGANAIDYSGYPDCRPEYFNAMEKALTLGTEIGLRKGMHINVPLQYLTKADIIRMGLKLGVPYEKTWSCYKGGEKACGECDSCLLRLKGFMEAGSEDPLEYEKYPTFYKDYIEKRKK”, the “soluble on expression in E. coli” value is reported as “soluble”.
